Results on two substances are retold here after patent US20150218227.

In data set [1] the target is PPR10 ND variant motifs 6 and 7 (position 6, 1') changed to N6,D1' (Zea mays) (UniProt B8Y6I0). The experiment in a line: EMSA. As to conditions: RNA 15 pM. In general terms: Mobility shift assays separate free from complexed probe on a gel.
Data set [2] concerns the target PPR10 NS variant motifs 6 and 7 (position 6, 1') changed to N6,S1' (Zea mays) (UniProt B8Y6I0). The experiment in a line: EMSA. The note with it: RNA 15 pM.

pKd: −log10 of the molar value.

Broadly, the pKd is −log10 of the Kd, conventionally taken in molar units. A high value points to a low Kd.

Regarding atpH CC-substituted RNA, the figures for the pKd in data set [1] and in data set [2] were 7.77 and 8.05, respectively.
Regarding atpH UU-substituted RNA, the pKd in data set [1] is 8.52; in data set [2], 7.70.
